The results in this text go back to the nanobody polyreactivity screen of Harvey et al. (2022).

This series in a line: yeast display, Sf9 membrane polyspecificity reagent, FACS + sequencing; frameworks hold sequencing errors. The essentials:
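A synthetic nanobody library was expressed on Saccharomyces cerevisiae BJ5465 by galactose induction for 36–48 hours. The library was stained for 1 hour at 4 °C with 10% biotinylated, detergent-solubilized Sf9 membrane reagent and enriched with streptavidin microbeads before FACS. Low and high (top ~1%) gates were set on anti-HA fluorescence for expression and streptavidin fluorescence for reagent binding, and each polyreactivity label reflects the gate of origin.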
In the case of “QVQLVESGGGLVQAGGSLRLSCAASGLTFGDYTMGWYRQAPGKERELVAAITGSGASTYYADSVKGRFTISRDNAQNTGYLQMNSLKPEDTAVYYCDAERTPSYRAYDYWGQGTQVTVSS”, the “polyreactivity (PSR sort gate)” value is on record as “low polyreactivity”.
Turning to “QVQLVESGGGLVQAGGSLRLSCAASGLTFGDYTMGWYRQAPGKERELVAAITWSGASTYYADSVKGRFTISRDNAKNTVYLEMNSLKPEDTAGYYCAAERTPSYRAYDYWGQGTQVTVSS”, the “polyreactivity (PSR sort gate)” value is listed as “low polyreactivity”.
Regarding “QVQLVESGGGLVQAGGSLRLSCAASGLTFGFNAMGWYRQAPGKERELVAAISSRGGSTYYADSVKGRFTISRDNAKNTVYLQMNSLKPEDTAVYYCNARSVYDGFWYNYWGQGTQVTVSS”, the “polyreactivity (PSR sort gate)” value is “low polyreactivity”.
As to “QVQLVESGGGLVQAGGSLRLSCAASGLTFGFYARGWYTQAPGKERQLVPRISNGGSTNYADSVKGRFTISRDNAKNTVYLQMNSLKPEDTAVYYCNAGLVLPPPGAYIVYFDQMDYWGQGTQVTVSS”, the “polyreactivity (PSR sort gate)” value was “low polyreactivity”.
The same measure for “QVQLVESGGGLVQAGGSLRLSCAASGLTFGGNAMGWYRQAPGKERELVAGISWSGGNTNYADSVKGRFTISRDNAKNTVYLQMNSLKPEDNAVYYCNKATNLSGGYDSWGQGTQVTVSS”: “low polyreactivity”; for “QVQLVESGGGLVQAGGSLRLSCAASGLTFGGYVMGWYRQAPGKERELVAAISGSGGRTYYADSVKGRFTISRDNAKNTVYLQRNSLKPEDTAVYDCARPPRGPPRGYYWGQGTQVTVSS”: “high polyreactivity”.
With “QVQLVESGGGLVQAGGSLRLSCAASGLTFGRNAMGWYRQAPGKERELVAAIRWSGGSTYYADSVKGRFTISRDNAKNTVYLQMNSLKPEDTAVYYCAATRVLRPVGTHYYYWGQGTQVTVSS” the entry was “high polyreactivity”; with “QVQLVESGGGLVQAGGSLRLSCAASGLTFGRYAMGWYRQAPGKERELVAAITASGGITYYADSVKGRFTISRDNAKNTVYLQMNSLKPEDTAVYYCAADGEVKYDYWGQGTQVTVSS”, “low polyreactivity”.
The same measure for “QVQLVESGGGLVQAGGSLRLSCAASGLTFGSYAMGWYRQAPGKERELVAAISRSGITYYADSVKGRFTISRDNAKNTVYLQMNSLKPEDTAVYYWAVTQNSKSTKIRPDQGDYGGQGTQVTVSS”: “high polyreactivity”; for “QVQLVESGGGLVQAGGSLRLSCAASGLTFGVYAMGWSRQAPGKERELVAAIDLSDDITYYADSVKGRFTISRDNAKNTVYLQMNSLKPEDTAVYYSAAEYYLYSTYTVSYWKYDYWGQGTQVTVSS”: “high polyreactivity”.
With “QVQLVESGGGLVQAGGSLRLSCAASGLTFGYYAMGWYRQAPGKERELVAGISGSGGSTYYADSVKGRFTISRDNAKNTLYLQMNSLKPEDTAVYYCNAEARYTGFAYSYFNSDYWGQGTQVTVSS”, the “polyreactivity (PSR sort gate)” value was “low polyreactivity”.
Regarding “QVQLVESGGGLVQAGGSLRLSCAASGLTFGYYAMGWYRQAPGKERELVAVISGGGGTHYADSVKGRFTISRDNAKITVYLQMNSLKPEDTAVYYCAARYRAQQIARYYYWGQGTQVTVSS”, the “polyreactivity (PSR sort gate)” value is given as “high polyreactivity”.
With “QVQLVESGGGLVQAGGSLRLSCAASGLTFGYYDMGRYRQAPGKERELVAAITSGGTTNYADSVKGRFTISRDNAKNTVYLQMNSQKPEDNAVYYCNADYYSRIVGVRIYDYWGQGTQVTVSS” the entry was “low polyreactivity”.
The same measure for “QVQLVESGGGLVQAGGSLRLSCAASGLTFIHYAMGWYRQAPGKEREFVAAISTNSGSTYYADSVKGRFTISRDNAKNTVYLQMNSLKPEDTAVYYCAARGLRWRIDGEYWGQGTQVTVSS”: “high polyreactivity”.
The same measure for “QVQLVESGGGLVQAGGSLRLSCAASGLTFIIYAMGWYRQAPGKERELVARISSGGRTNYADSVKGRFTISRDYAKNTVYIQMNSLTPEDTAVYYCAAAFVYPYRHYYRYDYWGQATQVTVSS”: “high polyreactivity”; for “QVQLVESGGGLVQAGGSLRLSCAASGLTFKANAMGWYRQAPGKERELVAAITWSGTSTYYADSVKGRFTISRDNAKNTVYLQMNSLKPEDTAVYYCNKPYDVWYHDYDYWGQGTQVTVSS”: “low polyreactivity”.
In the case of “QVQLVESGGGLVQAGGSLRLSCAASGLTFKFNAMGWYIQAPGKERELVADISFGGDDTYYSDSVKGRFTISRDNAKNTVYLQMNSQKPEDNAVYYCAAEYDTWGYSGRDYWGQGTQVTVSS”, the “polyreactivity (PSR sort gate)” value is “low polyreactivity”.
With “QVQLVESGGGLVQAGGSLRLSCAASGLTFKRYAMGWYRQAPGKEREFVAAISAGGASTHYADSVKGRFTISRDNAKNTVYLQMNSLKPEDTAVYYCATDYRTFRPSFGYWGQGTQVTVSS”, the “polyreactivity (PSR sort gate)” value is recorded as “low polyreactivity”.
With “QVQLVESGGGLVQAGGSLRLSCAASGLTFKRYVMGWYRQAPGKERELVAAITVSGGNTYYADSVKGRFTISRDNAKNTVYLQMNSLKPEDTAVYYCNADAGAIYYRRYHFYYWGQGTQVTVSS” the entry was “low polyreactivity”.
The same measure for “QVQLVESGGGLVQAGGSLRLSCAASGLTFKSNAMGWYRPAPGKERELVASISKRGGTTYYADSVKGRFTISRDNAKNTVYLQMNSLKPEDTAVYYCAAQSRATTYSWWTGSDYWGQGTQVTVSS”: “high polyreactivity”; for “QVQLVESGGGLVQAGGSLRLSCAASGLTFKSYAMGWYRQAPGKERELVAAISWRGGRTYYADSVKGRFTISRDNAKNTVYLQMNSLKPEDTAVYYCNARSQQWWLSRYNYWGQGSQVTVSS”: “high polyreactivity”; for “QVQLVESGGGLVQAGGSLRLSCAASGLTFKVYDMGWYRQAPGKERELVAAISWSGGSTYYADSVKGRFTISRDNAKNTVYLQMNSLKPEDTAVYFCAVEPSYYVVFFPYEYWGQGTQVTVSS”: “low polyreactivity”.
The same measure for “QVQLVESGGGLVQAGGSLRLSCAASGLTFKYYAMGWYRQAPGKERELVAAISWNGDRTYYADSVKGRFTISRDNAKNTVYLQMNSLKPEDTAVYYCATKFYFSTSIAGGYWGQGTQVTVSS”: “high polyreactivity”.
For the sequence “QVQLVESGGGLVQAGGSLRLSCAASGLTFLNNAMGWYRQAPGKERELVAAISDGGSTNYADSVKGRFTISRDNAKNTVYLQMNSLKPEDTAVYYCAARVRGDYGHKYYQFDYWGQGTQVTVSS”, the “polyreactivity (PSR sort gate)” value is “low polyreactivity”.
With “QVQLVESGGGLVQAGGSLRLSCAASGLTFLWYAMGWYRQAPGKERELVAAITSGGRTKYADSVKGRFTISRDNAKNTVYLQMNSLKPEDTAVYYCAAYTQWWGYDYWGQGTLVTVSS” the entry was “high polyreactivity”; with “QVQLVESGGGLVQAGGSLRLSCAASGLTFLWYAMGWYRQAPGKERELVAAITSGGRTKYADSVKGRFTISRDNAKNTVYLQMNSLKPEDTAVYYCAKRGGGTTYSRKHDYWGQGTQVTVSS”, “high polyreactivity”; with “QVQLVESGGGLVQAGGSLRLSCAASGLTFLYYAMGWYRQAPGKEREFVAAIDISGGSTYYADSVKGRFTISRDNAKKTVYLQMYSLKPEDTAVYYCAVEPWYYLAGRSQYDYWGQGTQVTVSS”, “low polyreactivity”.
With “QVQLVESGGGLVQAGGSLRLSCAASGLTFLYYAMGWYRQAPGKERELVAAITGSGGTTNYADSVKGRFTISRDNAKNTVYLQMNSLKPEDTAVYYCAARGRKYYTSLGYYYWGQGTQVTVSS” the entry was “high polyreactivity”; with “QVQLVESGGGLVQAGGSLRLSCAASGLTFNSYDMGWYRQAPGKERELVAAISSGGVLPNYADSVKGRFTISRDNAKNTVYLQMNSLNPEDTAVYYCNVYSWPYDYWGQGTQVTVSS”, “low polyreactivity”.
With “QVQLVESGGGLVQAGGSLRLSCAASGLTFNVYAMGWYRQAPGKERELVASITKRGGSTYYADSVKGRFTISRDNAKNTVYLEMNSLKPEDTAVYYCAADGLTGSKYRATGYYWGQGTQVTVSS” the entry was “high polyreactivity”; with “QVQLVESGGGLVQAGGSLRLSCAASGLTFNYYAMGWYRQAPGKERELVAAISSSTGSTYYADSVKGRFTISRDNAKYTVYLQMNSLKPEDTAVYYCAAVRTKAYVSRTSQSGYWGQGTQVTVSS”, “high polyreactivity”; with “QVQLVESGGGLVQAGGSLRLSCAASGLTFNYYAMGWYRQPPGKESELVAAITSSGGRTYYADSVKGRFTISRDNAKNTGYLQMNSLKPEDTAVYYCNTVSYRLGAVWFSYDYWGQGTQVTVSS”, “high polyreactivity”.
Turning to “QVQLVESGGGLVQAGGSLRLSCAASGLTFPFYAMGWYRQAPGKERELVAAITGSGGITYYADSVKGRFTISRDNAKNTVYLQMNSLKPEETAVYYCAFDYTYYTSFVPLFGFDYWGQGTQVTVSS”, the “polyreactivity (PSR sort gate)” value is “low polyreactivity”.
The same measure for “QVQLVESGGGLVQAGGSLRLSCAASGLTFPLYAMGWYRQAPGKEREFVAAITVSGVSTSYADSEKGRFTISRDIAKITVYLQMNSLKPEDTAVYYCAADYYIWTYWDVYYWGQGTQVTVSS”: “high polyreactivity”.
On to “QVQLVESGGGLVQAGGSLRLSCAASGLTFPSYAMGWYRQAPGKERELVASISSGGSTTYADSVKGRFTISRDNAKNTVYLQMNSLKPEDTAVYYCAAGRYVLRRGYYYWGQGTQVTVSS”, for which the “polyreactivity (PSR sort gate)” value is given as “high polyreactivity”.
With “QVQLVESGGGLVQAGGSLRLSCAASGLTFPWYAMGWYRQAPGKERELVAGISWSGGSTYYADSVKGRFTNSRDNAKNTVYLQMNSLKPEDTAVYYCKLVKTTSTLGKRRYDYWGQGTQVTVSS” the entry was “high polyreactivity”.
With “QVQLVESGGGLVQAGGSLRLSCAASGLTFPYYAMGWYRKAPGKERELVAGISDSGGSTYYADSVKGRFTISRDNAKNTVYLQMNSLKPEDTAVYYCAAQGVDSYYENDYWGQGTQVTVSS” the entry was “high polyreactivity”; with “QVQLVESGGGLVQAGGSLRLSCAASGLTFPYYAMGWYRQAPGKEREFVAAISRGGGRTSYADSVKGRFTISRDNAKNTVYLQMNSLKPEDTAVYYCAADDPGWYSDLYYYWGLGTQVTVSS”, “high polyreactivity”.
Consider “QVQLVESGGGLVQAGGSLRLSCAASGLTFPYYAMGWYRQAPGKERELVAAISGGGRTYYADSVMGRFTISRDNAKNTVYLQMNSLKPEDTAVYYCAPFHVGRYTGTVTDGYDYWGQGTQVTVSS”, for which the “polyreactivity (PSR sort gate)” value is reported as “high polyreactivity”.
With “QVQLVESGGGLVQAGGSLRLSCAASGLTFQENAMGWYRQAPGKERELVASITPIGGSTYYADSVKGRFTISRDNAKNTVYLQMKSLKPEDTAVYYCAARSPIYATYGHDYWGQATQVTVSS” the entry was “low polyreactivity”.
